# Data taken from article PMC3841736.
# Biological target: APC (UniProt P25054)
# Experiment: Flag co-IP, immunoblot
# Details: reference: wild-type Flag:α-catenin; sites Y177
substance,measurement,value
α-catenin (from UniProt P35221) Y177F,binding against the reference,stronger
